The labels stand for the following.
B1: POU domain, class 3, transcription factor 2, residues 262 to 338; numbered along this chain, P20265 (parent)
chain: EDTPTSDDLEQFAKQFKQRRIKLGFTQADVGLALGTLYGNVFSQTTICRFEALQLSFKNMCKLKPLLNKWLEEADSS

± gives the uncertainty stated by the source.

The data set covers variants of B1. The data set can be described thus: abundance fitness (aPCA) (normalised: wild type 0, dead -1); higher = more abundant; growth selection in yeast, the domain comes from the species named. The settings on record: Homo sapiens.
In the case of EDTPTSDDLEQFAKQFKQRRIKLGFTQADVGLALGTLYGNVFNQTTICRFEALQLSFKNMCKLKPLLNKWLEEADSS [S43N], the abundance fitness was 0.01 ± 0.054.
EDTPTSDDLEQFAKQFKQRRIKLGFTQADVGLALGTLYGNVFVQTTICRFEALQLSFKNMCKLKPLLNKWLEEADSS [S43V]: the abundance fitness is -0.703 ± 0.056.
Consider EDTPTSDDLEQFAKQFKQRRIKLGFTQADVGLALGTLYGNVFRQTTICRFEALQLSFKNMCKLKPLLNKWLEEADSS [S43R], for which the abundance fitness was -0.206 ± 0.031.
EDTPTSDDLEQFAKQFKQRRIKLGFTQADVGLALGTLYGNVFIQTTICRFEALQLSFKNMCKLKPLLNKWLEEADSS [S43I]: the abundance fitness was -0.768 ± 0.19.
Turning to EDTPTSDDLEQFAKQFKQRRIKLGFTQADVGLALGTLYGNVFAQTTICRFEALQLSFKNMCKLKPLLNKWLEEADSS [S43A], the abundance fitness is -0.209 ± 0.034.
Turning to EDTPTSDDLEQFAKQFKQRRIKLGFTQADVGLALGTLYGNVFGQTTICRFEALQLSFKNMCKLKPLLNKWLEEADSS [S43G], the abundance fitness is -0.12 ± 0.028.
EDTPTSDDLEQFAKQFKQRRIKLGFTQADVGLALGTLYGNVFKQTTICRFEALQLSFKNMCKLKPLLNKWLEEADSS [S43K]: the abundance fitness was -0.132 ± 0.053.
As for EDTPTSDDLEQFAKQFKQRRIKLGFTQADVGLALGTLYGNVFDQTTICRFEALQLSFKNMCKLKPLLNKWLEEADSS [S43D], the abundance fitness is 0.093 ± 0.048.
Regarding EDTPTSDDLEQFAKQFKQRRIKLGFTQADVGLALGTLYGNVFLQTTICRFEALQLSFKNMCKLKPLLNKWLEEADSS [S43L], the abundance fitness is -0.485 ± 0.049.
As to EDTPTSDDLEQFAKQFKQRRIKLGFTQADVGLALGTLYGNVFEQTTICRFEALQLSFKNMCKLKPLLNKWLEEADSS [S43E], the abundance fitness is -0.031 ± 0.039.
For EDTPTSDDLEQFAKQFKQRRIKLGFTQADVGLALGTLYGNVFPQTTICRFEALQLSFKNMCKLKPLLNKWLEEADSS [S43P], the abundance fitness was -0.102 ± 0.041.
Regarding EDTPTSDDLEQFAKQFKQRRIKLGFTQADVGLALGTLYGNVFYQTTICRFEALQLSFKNMCKLKPLLNKWLEEADSS [S43Y], the abundance fitness is -0.486 ± 0.12.
Turning to EDTPTSDDLEQFAKQFKQRRIKLGFTQADVGLALGTLYGNVFHQTTICRFEALQLSFKNMCKLKPLLNKWLEEADSS [S43H], the abundance fitness was 0.007 ± 0.075.
The value for EDTPTSDDLEQFAKQFKQRRIKLGFTQADVGLALGTLYGNVFQQTTICRFEALQLSFKNMCKLKPLLNKWLEEADSS [S43Q] was -0.166 ± 0.045.
With EDTPTSDDLEQFAKQFKQRRIKLGFTQADVGLALGTLYGNVFWQTTICRFEALQLSFKNMCKLKPLLNKWLEEADSS [S43W], the abundance fitness was -0.5 ± 0.062.
The value for EDTPTSDDLEQFAKQFKQRRIKLGFTQADVGLALGTLYGNVFMQTTICRFEALQLSFKNMCKLKPLLNKWLEEADSS [S43M] was -0.569 ± 0.071.
As to EDTPTSDDLEQFAKQFKQRRIKLGFTQADVGLALGTLYGNVFFQTTICRFEALQLSFKNMCKLKPLLNKWLEEADSS [S43F], the abundance fitness was -0.57 ± 0.18.
For EDTPTSDDLEQFAKQFKQRRIKLGFTQADVGLALGTLYGNVFCQTTICRFEALQLSFKNMCKLKPLLNKWLEEADSS [S43C] the value was -0.042 ± 0.05; for EDTPTSDDLEQFAKQFKQRRIKLGFTQADVGLALGTLYGNVFSQTGICRFEALQLSFKNMCKLKPLLNKWLEEADSS [T46G], -0.643 ± 0.036; for EDTPTSDDLEQFAKQFKQRRIKLGFTQADVGLALGTLYGNVFSQTMICRFEALQLSFKNMCKLKPLLNKWLEEADSS [T46M], -0.185 ± 0.041.
Consider EDTPTSDDLEQFAKQFKQRRIKLGFTQADVGLALGTLYGNVFSQTCICRFEALQLSFKNMCKLKPLLNKWLEEADSS [T46C], for which the abundance fitness is -0.317 ± 0.061.
EDTPTSDDLEQFAKQFKQRRIKLGFTQADVGLALGTLYGNVFSQTDICRFEALQLSFKNMCKLKPLLNKWLEEADSS [T46D]: the abundance fitness worked out at 0.064 ± 0.046.
The value for EDTPTSDDLEQFAKQFKQRRIKLGFTQADVGLALGTLYGNVFSQTNICRFEALQLSFKNMCKLKPLLNKWLEEADSS [T46N] was -0.393 ± 0.1; that for EDTPTSDDLEQFAKQFKQRRIKLGFTQADVGLALGTLYGNVFSQTRICRFEALQLSFKNMCKLKPLLNKWLEEADSS [T46R] was -0.376 ± 0.03.
In the case of EDTPTSDDLEQFAKQFKQRRIKLGFTQADVGLALGTLYGNVFSQTHICRFEALQLSFKNMCKLKPLLNKWLEEADSS [T46H], the abundance fitness was -0.208 ± 0.066.
As for EDTPTSDDLEQFAKQFKQRRIKLGFTQADVGLALGTLYGNVFSQTEICRFEALQLSFKNMCKLKPLLNKWLEEADSS [T46E], the abundance fitness is -0.035 ± 0.037.
For EDTPTSDDLEQFAKQFKQRRIKLGFTQADVGLALGTLYGNVFSQTAICRFEALQLSFKNMCKLKPLLNKWLEEADSS [T46A] the value was -0.186 ± 0.03.
The value for EDTPTSDDLEQFAKQFKQRRIKLGFTQADVGLALGTLYGNVFSQTKICRFEALQLSFKNMCKLKPLLNKWLEEADSS [T46K] was -0.416 ± 0.059; that for EDTPTSDDLEQFAKQFKQRRIKLGFTQADVGLALGTLYGNVFSQTQICRFEALQLSFKNMCKLKPLLNKWLEEADSS [T46Q] was -0.058 ± 0.045.
In the case of EDTPTSDDLEQFAKQFKQRRIKLGFTQADVGLALGTLYGNVFSQTPICRFEALQLSFKNMCKLKPLLNKWLEEADSS [T46P], the abundance fitness was -0.697 ± 0.082.
Take EDTPTSDDLEQFAKQFKQRRIKLGFTQADVGLALGTLYGNVFSQTLICRFEALQLSFKNMCKLKPLLNKWLEEADSS [T46L]: the abundance fitness was -0.103 ± 0.032.
For EDTPTSDDLEQFAKQFKQRRIKLGFTQADVGLALGTLYGNVFSQTIICRFEALQLSFKNMCKLKPLLNKWLEEADSS [T46I] the value was -0.1 ± 0.053; for EDTPTSDDLEQFAKQFKQRRIKLGFTQADVGLALGTLYGNVFSQTFICRFEALQLSFKNMCKLKPLLNKWLEEADSS [T46F], -0.325 ± 0.11.
In the case of EDTPTSDDLEQFAKQFKQRRIKLGFTQADVGLALGTLYGNVFSMTTICRFEALQLSFKNMCKLKPLLNKWLEEADSS [Q44M], the abundance fitness is -0.145 ± 0.042.
EDTPTSDDLEQFAKQFKQRRIKLGFTQADVGLALGTLYGNVFSNTTICRFEALQLSFKNMCKLKPLLNKWLEEADSS [Q44N]: the abundance fitness is -0.133 ± 0.06.

The values above are taken from the Human Domainome abundance scans (Beltran et al. 2025).
